Laboratory results reported in article PMC9312489, “Tertiary and Quaternary Structure Organization in GMP Synthetases: Implications for Catalysis” (Biomolecules, 2022).

B1: Native Plasmodium falciparum GMP synthetase (PfGMPSwt) (enzyme, UniProt Q8IJR9 1-555, looked up)
chain: MEGEEYDKILVLNFGSQYFHLIVKRLNNIKIFSETKDYGVELKDIKDMNIKGVILSGGPYSVTEAGSPHLKKEVFEYFLEKKIPIFGICYGMQEIAVQMNGEVKKSKTSEYGCTDVNILRNDNINNITYCRNFGDSSSAMDLYSNYKLMNETCCLFENIKSDITTVWMNHNDEVTKIPENFYLVSSSENCLICSIYNKEYNIYGVQYHPEVYESLDGELMFYNFAYNICKCKKQFDPIRYHELELKNIEKYKHDHYVIAAMSGGIDSTVAAAYTHKIFKERFFGIFIDNGLLRKNEAENVYTFLKSTFPDMNITKIDASENFLSNLQGVTDPEQKRKIIGKLFIEEFEKAVNNIDIDINKTFLLQGTLYPDIIESKCSKNLSDTIKTHHNVGGLPKNLKFKLFEPFKYLFKDDVKTLSRELNLPEEITNRHPFPGPGLAIRVIGEINKHKLNILREVDDIFINDLKQYGLYNQISQAFAVLLSSKSVGVRGDARSYDYVCVLRAVKTSSFMTANWYQIPYDILDKITTRILSEVKGVNRILYDVSSKPPATIEFE
notes: GMP synthetase of Plasmodium falciparum, native gene PF10_0123 (PlasmoDB); also called native enzyme; wild-type enzyme; source: E. coli (pQE30PfGMPS construct), purified (HisTrap HP, Superdex 200 SEC)
B2: PfGMPS_C89A (enzyme)
chain: MEGEEYDKILVLNFGSQYFHLIVKRLNNIKIFSETKDYGVELKDIKDMNIKGVILSGGPYSVTEAGSPHLKKEVFEYFLEKKIPIFGIAYGMQEIAVQMNGEVKKSKTSEYGCTDVNILRNDNINNITYCRNFGDSSSAMDLYSNYKLMNETCCLFENIKSDITTVWMNHNDEVTKIPENFYLVSSSENCLICSIYNKEYNIYGVQYHPEVYESLDGELMFYNFAYNICKCKKQFDPIRYHELELKNIEKYKHDHYVIAAMSGGIDSTVAAAYTHKIFKERFFGIFIDNGLLRKNEAENVYTFLKSTFPDMNITKIDASENFLSNLQGVTDPEQKRKIIGKLFIEEFEKAVNNIDIDINKTFLLQGTLYPDIIESKCSKNLSDTIKTHHNVGGLPKNLKFKLFEPFKYLFKDDVKTLSRELNLPEEITNRHPFPGPGLAIRVIGEINKHKLNILREVDDIFINDLKQYGLYNQISQAFAVLLSSKSVGVRGDARSYDYVCVLRAVKTSSFMTANWYQIPYDILDKITTRILSEVKGVNRILYDVSSKPPATIEFE
notes: GMP synthetase of Plasmodium falciparum (PF10_0123) with the catalytic Cys89 of the GATase domain mutated to alanine; made with pETPfGMPS as template; this is a point mutant made on the plasmid pETPfGMPS; also called C89A single mutant; single mutant enzyme; source: E. coli BL21-CodonPlus(DE3)-RIL (pETPfGMPS mutant construct), purified (HisTrap HP, Superdex 200 SEC)

Molecular target: the molecule itself
Experiment: SAXS; samples in solution at ~12 mg/mL, beamline BM29 (ESRF), ATSAS analysis, ab initio shapes

Protein | stoichiometry N
B1 | 2
B2 | 2
